What all share (type): physicochemical
The nature of series [1]: Alkaline phosphatase activity after drying and acetone exposure. The following applies: dried with 50% trehalose versus dried without trehalose; with bovine serum albumin; FIG. 6B. As for the experimental part: (§1) A 0.1 mg/ml horseradish peroxidase solution or a 1 mg/ml alkaline phosphatase/4 mg/ml bovine serum albumin solution was dried in an FTS Systems freeze drier with or without 50% trehalose. The drier was used as a vacuum drier and the mixtures dried without freezing. Four times the volume of solvent was added and the solution was allowed to evaporate to dryness. The contents were redissolved in 5 milliliters of water, and enzyme activity was assessed, in serial dilution, by commercial ‘kit’ reagents.

Series [2] is described as follows: Horseradish peroxidase activity after drying and acetone exposure. Particulars: dried with 50% trehalose versus dried without trehalose; FIG. 6A. As for the experimental part: as §1
The nature of series [3]: Storage of phycoerythrin dried in trehalose at 100° C. The following applies: stored at 100° C. for one month. Here is the method: A 400 μg/ml phycoerythrin solution was freeze-dried in the FTS drier with or without 20% trehalose.
The nature of series [4]: Exposure of dried phycoerythrin powder to organic solvents, fluorescence. Particulars: freeze-dried powder. As for the experimental part:
A 400 μg/ml phycoerythrin solution was freeze-dried in a Labconco freeze-drier with or without 20% trehalose. The dried protein powder was exposed to a number of organic solvents for 72 hrs.

These results are taken from patent US7785631B2, “Solid dose delivery vehicle and methods of making same” (Quadrant Drug Delivery Limited, priority 1994, dated 2010).

Take alkaline phosphatase: in series [1], the “resistance of enzyme activity to acetone” value was “more resistant to acetone”.

As to horseradish peroxidase, in series [2], the “resistance of enzyme activity to acetone” value is on record as “more resistant to acetone”.

On to phycoerythrin, for which, in series [3], the “loss of functional activity on storage” value is given as “no detectable loss of functional activity”. Also, the “fluorescence after solvent exposure” value in series [4] (acetone, 72 hrs) is recorded as “remained fluorescent”; in series [4] (acetonitrile, 72 hrs), “remained fluorescent”; in series [4] (chloroform, 72 hrs) it was “remained fluorescent”; in series [4] (dimethylsulfoxide (powder solubilized)), “remained fluorescent”; in series [4] (methanol, 72 hrs), “remained fluorescent”; in series [4] (pyridine, by 72 hrs), “lost fluorescence”. Besides, the time remained fluorescent in series [4] (pyridine) lay within 24 to 48 h.
